Paper PMC3768570 (Brazilian Journal of Microbiology, 2009)

What was measured:
[1] = tested on: Saccharomyces cerevisiae phytase; experiment: phosphate release, ammonium molybdate, Lineweaver-Burk; type: biochemical; conditions: pH 5.0, 37°C, 100 mM sodium acetate; InsP3 prepared with S. cerevisiae phytase
[2] = target: T1, phytase from Aspergillus niger 11T53A9 (Aspergillus niger, UniProt P34752); experiment: biochemical
T1 sequence (P34752 24-467): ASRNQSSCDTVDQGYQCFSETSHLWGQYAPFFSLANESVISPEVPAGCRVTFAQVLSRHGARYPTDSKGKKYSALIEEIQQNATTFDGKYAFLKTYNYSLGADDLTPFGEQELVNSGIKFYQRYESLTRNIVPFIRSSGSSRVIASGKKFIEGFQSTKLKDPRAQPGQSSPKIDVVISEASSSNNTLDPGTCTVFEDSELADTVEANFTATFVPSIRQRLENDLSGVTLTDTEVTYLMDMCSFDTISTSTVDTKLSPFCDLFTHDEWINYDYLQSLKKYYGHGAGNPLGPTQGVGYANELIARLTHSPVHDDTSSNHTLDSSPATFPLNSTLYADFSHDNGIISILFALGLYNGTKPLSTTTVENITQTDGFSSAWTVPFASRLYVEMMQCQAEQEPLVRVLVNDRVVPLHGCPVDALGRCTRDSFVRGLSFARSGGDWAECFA

purified protein [3] = substrate: Nc1ncnc2c1ncn2[C@@H]1O[C@H](COP(=O)(O)O)[C@@H](O)[C@H]1O; experiment: purified protein; conditions: pH 5.0, 37°C, 100 mM sodium acetate
purified protein [4] = substrate: Nc1ncnc2c1ncn2[C@@H]1O[C@H](COP(=O)(O)OP(=O)(O)O)[C@@H](O)[C@H]1O; experiment: purified protein; conditions: pH 5.0, 37°C, 100 mM sodium acetate
purified protein [5] = substrate: Nc1ncnc2c1ncn2[C@@H]1O[C@H](COP(=O)(O)OP(=O)(O)OP(=O)(O)O)[C@@H](O)[C@H]1O; experiment: purified protein; conditions: pH 5.0, 37°C, 100 mM sodium acetate
purified protein [6] = substrate: O=P(O)(O)OC(CO)CO; experiment: purified protein; conditions: pH 5.0, 37°C, 100 mM sodium acetate
purified protein [7] = substrate: O=P(O)(O)O[C@H]1O[C@H](CO)[C@@H](O)[C@H](O)[C@H]1O; experiment: purified protein; conditions: pH 5.0, 37°C, 100 mM sodium acetate
purified protein [8] = substrate: O=P(O)(O)O[C@H]1[C@H](OP(=O)(O)O)[C@@H](OP(=O)(O)O)[C@H](OP(=O)(O)O)[C@@H](OP(=O)(O)O)[C@H]1OP(=O)(O)O; experiment: purified protein; conditions: pH 5.0, 37°C, 100 mM sodium acetate
purified protein [9] = substrate: O=P(O)(O)Oc1ccc2ccccc2c1; experiment: purified protein; conditions: pH 5.0, 37°C, 100 mM sodium acetate
purified protein [10] = substrate: O=P(O)(O)Oc1cccc2ccccc12; experiment: purified protein; conditions: pH 5.0, 37°C, 100 mM sodium acetate
purified protein [11] = substrate: O=P(O)(O)Oc1ccccc1; experiment: purified protein; conditions: pH 5.0, 37°C, 100 mM sodium acetate
purified protein [12] = substrate: O=[N+]([O-])c1ccc(OP(=O)(O)O)cc1; experiment: purified protein; conditions: pH 5.0, 37°C, 100 mM sodium acetate

`O=P(O)(O)O[C@@H]1[C@H](OP(=O)(O)O)[C@H](O)[C@@H](O)[C@H](O)[C@H]1OP(=O)(O)O` [D-Ins(1,2,6)P3] showed a Km [1] of 293 ± 12 µM.

`F` [Fluoride] was tested, and the Ki [2] was 158 µM.

B1: phytase from Aspergillus niger 11T53A9 (Aspergillus niger) (protein)
chain: ASRNQSSCDTVDQGYQCFSETSHLWGQYAPFFSLANESVISPEVPAGCRVTFAQVLSRHGARYPTDSKGKKYSALIEEIQQNATTFDGKYAFLKTYNYSLGADDLTPFGEQELVNSGIKFYQRYESLTRNIVPFIRSSGSSRVIASGKKFIEGFQSTKLKDPRAQPGQSSPKIDVVISEASSSNNTLDPGTCTVFEDSELADTVEANFTATFVPSIRQRLENDLSGVTLTDTEVTYLMDMCSFDTISTSTVDTKLSPFCDLFTHDEWINYDYLQSLKKYYGHGAGNPLGPTQGVGYANELIARLTHSPVHDDTSSNHTLDSSPATFPLNSTLYADFSHDNGIISILFALGLYNGTKPLSTTTVENITQTDGFSSAWTVPFASRLYVEMMQCQAEQEPLVRVLVNDRVVPLHGCPVDALGRCTRDSFVRGLSFARSGGDWAECFA
With B1 the Km (purified protein [3]) was 497 ± 8.2 µM, the kcat (purified protein [3]) was 11 ± 1.1 s⁻¹ and the kcat/Km (purified protein [3]) was 22100 M⁻¹ s⁻¹. For the same molecule, the Km (purified protein [4]) was 534 ± 7.9 µM, the kcat (purified protein [4]) was 12 ± 0.9 s⁻¹ and the kcat/Km (purified protein [4]) was 22500 M⁻¹ s⁻¹. The Km (purified protein [5]) was 587 ± 6.5 µM, the kcat (purified protein [5]) was 8 s⁻¹ and the kcat/Km (purified protein [5]) was 13600 M⁻¹ s⁻¹. It also gave a Km (purified protein [6]) of 521 ± 9.1 µM, a kcat (purified protein [6]) of 9 ± 0.3 s⁻¹ and a kcat/Km (purified protein [6]) of 17300 M⁻¹ s⁻¹. The Km (purified protein [7]) was 741 ± 6.4 µM, the kcat (purified protein [7]) was 6 ± 0.4 s⁻¹ and the kcat/Km (purified protein [7]) was 8100 M⁻¹ s⁻¹. The Km (purified protein [8]) was 54 ± 1.4 µM, the kcat (purified protein [8]) was 190 ± 4.3 s⁻¹ and the kcat/Km (purified protein [8]) was 3.52e+06 M⁻¹ s⁻¹. It also gave a Km (purified protein [9]) of 276 ± 7.1 µM, a kcat (purified protein [9]) of 22 s⁻¹ and a kcat/Km (purified protein [9]) of 79700 M⁻¹ s⁻¹. The Km (purified protein [10]) was 247 ± 6.7 µM, the kcat (purified protein [10]) was 23 ± 1.5 s⁻¹ and the kcat/Km (purified protein [10]) was 93100 M⁻¹ s⁻¹. For the same molecule, the Km (purified protein [11]) was 177 ± 1.3 µM, the kcat (purified protein [11]) was 36 s⁻¹ and the kcat/Km (purified protein [11]) was 203000 M⁻¹ s⁻¹. It also gave a Km (purified protein [12]) of 124 ± 3.9 µM, a kcat (purified protein [12]) of 35 ± 0.9 s⁻¹ and a kcat/Km (purified protein [12]) of 282000 M⁻¹ s⁻¹.
